8 molecules from US20230272056A1 (Merck Sharp & Dohme, published 2023) can be followed below.

Changes are numbered by the printed parent chain.

Assay [1] deals with T1, human LAP-TGFB1 Fc fusion (human).
T1 construct: also called human LAP-TGFβ1-Fc; human LAP-TGFβ-Fc isoform 1
The assay can be described thus: SPR.

For assay [2], the target named is T2, human LAP-TGFB2 Fc fusion (human).
T2 construct: also called human LAP-TGFβ2; LAP-TGFβ isoform 2
The assay can be described thus: SPR pH 7.4.

Assay [3] deals with T3, human LAP-TGFB3 Fc fusion (human).
T3 construct: also called human LAP-TGFβ3; LAP-TGFβ isoform 3
T3 sequence (chain, as listed by the source limits assumed): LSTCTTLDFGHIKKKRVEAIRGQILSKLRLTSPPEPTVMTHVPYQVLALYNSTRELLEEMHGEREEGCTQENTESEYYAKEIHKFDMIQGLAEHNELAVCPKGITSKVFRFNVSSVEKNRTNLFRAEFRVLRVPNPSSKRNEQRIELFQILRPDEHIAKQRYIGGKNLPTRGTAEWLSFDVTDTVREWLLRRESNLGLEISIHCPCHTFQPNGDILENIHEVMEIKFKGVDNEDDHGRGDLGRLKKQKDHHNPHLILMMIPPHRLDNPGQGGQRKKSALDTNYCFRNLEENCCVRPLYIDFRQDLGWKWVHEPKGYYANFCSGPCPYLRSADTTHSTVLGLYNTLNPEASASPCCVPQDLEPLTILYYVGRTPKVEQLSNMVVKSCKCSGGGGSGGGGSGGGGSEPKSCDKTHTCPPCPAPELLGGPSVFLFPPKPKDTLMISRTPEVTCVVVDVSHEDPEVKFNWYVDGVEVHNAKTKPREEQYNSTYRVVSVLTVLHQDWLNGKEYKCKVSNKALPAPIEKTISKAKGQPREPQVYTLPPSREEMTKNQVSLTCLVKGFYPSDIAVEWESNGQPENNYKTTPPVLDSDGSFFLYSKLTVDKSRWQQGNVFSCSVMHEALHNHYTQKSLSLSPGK
The assay can be described thus: SPR pH 7.4.

Assay [4] has as its target T1, human LAP-TGFB1 Fc fusion. The assay can be described thus: SPR pH 7.4, antigen captured on Fab 54BLH. An excerpt:
(§1) A Series S C1 sensor chip (Cytiva, catalog BR100535) was immobilized with low densities of high affinity Fab 54BLH on a Biacore T200 instrument with 1×HBS-EP+(Teknova, catalog H8022). This surface served as a monovalent capture surface for a low-density layer of heterodimer human LAP-TGFβ1 complex leaving the second binding site exposed for monovalent kinetic binding analysis with both mAbs and Fabs. Immobilized flow cell 1 served as the reference and flow cells 2, 3 and 4 were used to evaluate the binding interaction between human LAP-TGFβ1 and yeast display mutant mAbs and Fabs.
(§2) Approximately 15-25 RU of human LAP-TGFβ1-Fc was captured to the Fab capture surface followed by injection of 1:3 serially diluted Fabs and mAbs from 6 nM to 0.07 nM (Fabs: 54BLH, 55BLH, 60BLH, 63BLH, 64BLH-mAbs: 69BLH, 70BLH) and 1:3 serially diluted Fab and mAbs from 60 nM to 0.74 nM (Fabs: 59BLH, 66BLH, 67BLH—mAbs: 74BLH, 75BLH, 78BLH, 79BLH, 81BLH, 82BLH) including 0 nM. The binding data was double referenced by subtraction of signal from a reference flow cell and the 0 nM injections for evaluation of Fabs and mAbs respectively. Binding rate constants were calculated/determined by fitting the data with a 1:1 binding model (Cytiva Biacore T200 Evaluation software 3.0).

The target in assay [5] is T1, human LAP-TGFB1 Fc fusion. The assay can be described thus: SPR pH 6.0, antigen captured on Fab 54BLH.
Source text: as §1, §2

Assay [6] addresses T1, human LAP-TGFB1 Fc fusion. Description: SPR pH 7.4, antigen-Fc captured, Fab analyte.
The target of assay [7] is T1, human LAP-TGFB1 Fc fusion. The assay can be described thus: SPR pH 6.0, antigen-Fc captured, Fab analyte. The method, then:
A Series S CM4 sensor chip (Cytiva, catalog BR100534) was immobilized with an anti-human Fc capture antibody following the kit protocol (Cytiva, catalog BR100839) on a Biacore T200 instrument with 1× HBS-EP+ (Teknova, catalog H8022). […] The binding data were double referenced by subtraction of signal from a reference (capture surface only) flow cell and the 0 nM Fab injection. Binding rate constants were determined by fitting the data with a 1:1 binding model (Cytiva Biacore T200 Evaluation software 3.0).

The target in assay [8] is T1, human LAP-TGFB1 Fc fusion. The assay can be described thus: SPR pH 7.4, antigen-Fc captured, Fab analyte. The source holds these as a separate data set.

T1 sequence (chain, as listed by the source limits assumed): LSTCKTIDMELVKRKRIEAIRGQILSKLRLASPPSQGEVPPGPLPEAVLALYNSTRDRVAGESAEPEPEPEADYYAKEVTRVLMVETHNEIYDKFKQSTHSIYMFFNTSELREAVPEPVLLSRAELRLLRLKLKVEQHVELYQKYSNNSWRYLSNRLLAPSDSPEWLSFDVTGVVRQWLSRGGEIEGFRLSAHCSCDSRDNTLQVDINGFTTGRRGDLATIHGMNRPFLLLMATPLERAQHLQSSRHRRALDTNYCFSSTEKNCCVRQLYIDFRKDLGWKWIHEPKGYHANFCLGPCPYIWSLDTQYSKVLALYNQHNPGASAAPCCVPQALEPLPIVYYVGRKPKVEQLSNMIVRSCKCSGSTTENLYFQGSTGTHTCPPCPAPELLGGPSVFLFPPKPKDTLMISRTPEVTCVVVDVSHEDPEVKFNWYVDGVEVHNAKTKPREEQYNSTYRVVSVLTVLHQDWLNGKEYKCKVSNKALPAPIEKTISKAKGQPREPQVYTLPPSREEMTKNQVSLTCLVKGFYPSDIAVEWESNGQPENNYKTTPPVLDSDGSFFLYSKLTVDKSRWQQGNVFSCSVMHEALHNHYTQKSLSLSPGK
T2 sequence (chain, as listed by the source limits assumed): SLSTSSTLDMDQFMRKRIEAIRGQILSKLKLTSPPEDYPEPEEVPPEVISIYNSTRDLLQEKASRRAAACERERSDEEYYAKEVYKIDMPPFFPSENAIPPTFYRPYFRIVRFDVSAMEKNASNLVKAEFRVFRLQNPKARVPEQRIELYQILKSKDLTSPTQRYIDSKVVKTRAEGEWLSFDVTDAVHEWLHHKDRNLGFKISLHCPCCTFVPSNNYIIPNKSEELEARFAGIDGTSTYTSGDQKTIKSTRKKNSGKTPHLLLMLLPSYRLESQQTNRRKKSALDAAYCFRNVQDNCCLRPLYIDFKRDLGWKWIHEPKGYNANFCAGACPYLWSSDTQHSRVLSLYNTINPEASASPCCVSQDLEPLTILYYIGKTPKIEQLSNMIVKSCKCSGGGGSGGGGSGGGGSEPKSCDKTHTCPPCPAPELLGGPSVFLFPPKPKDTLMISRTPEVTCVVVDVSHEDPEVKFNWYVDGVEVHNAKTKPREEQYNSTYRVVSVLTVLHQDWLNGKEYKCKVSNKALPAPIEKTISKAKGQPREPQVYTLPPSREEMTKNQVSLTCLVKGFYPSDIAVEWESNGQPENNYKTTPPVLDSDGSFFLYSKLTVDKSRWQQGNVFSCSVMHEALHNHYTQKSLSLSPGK

B1: 64BLH (Fab, V domains shown)
VH: EVQLVQSGAEVKKPGASVKVSCKASGYTFTSYDMHWVRQAPGQGLEWMGRIDPQSGGIKYAQKFQGRATLTVDTSTSTAYMELSRLRSDDTAVYYCARWDYGGYFDVWGQGTLVTVSS
VL: DIQMTQSPSSLSASVGDRVTITCRASQDIYNYLNWYQQKPGKAVKLLIYYTSVLETGVPSRFSGSGSGTDYTLTISSLQPEDFATYFCQQGDTLPWTFGQGTKLEIK
notes: also called 16BLM Fab
As for B1, in assay [1], the “Fold change in KD from pH 7.4 to pH 6” value came to 0.3 fold. The binding result in assay [2] and in assay [3] was “no binding (tested: 1000 nM Fab)” throughout. For the same molecule, the dissociation constant Kd in assay [4] is 0.062 nM; in assay [5] it was 0.182 nM; in assay [6], 0.077 nM; in assay [7], 0.024 nM; in assay [8], 0.077 nM. In addition, the koff was 0.000939 s⁻¹ in assay [4]; 0.00194 s⁻¹ in assay [5]; 0.0005 s⁻¹ in assay [6]; 0.000843 s⁻¹ in assay [7]; 0.0005 s⁻¹ in assay [8]. Further, the kon in assay [4] turned out to be 1.53e+07 M⁻¹ s⁻¹; in assay [5] it was 1.07e+07 M⁻¹ s⁻¹; in assay [6], 6.51e+06 M⁻¹ s⁻¹; in assay [7] it was 3.49e+07 M⁻¹ s⁻¹; in assay [8] it was 6.51e+06 M⁻¹ s⁻¹. Further, the “Fold improvement in KD” value in assay [6] was determined as 760 fold.

B2: 68BLH (Fab, V domains shown)
VH: B1 VH with I58E, W99Y
VL: B1 VL with V53R
notes: also called 20BLM Fab
On to B2, for which the “Fold change in KD from pH 7.4 to pH 6” value in assay [1] amounted to 1.2 fold. For the same molecule, the binding result in assay [2] is “no binding (tested: 1000 nM Fab)”. The binding result in assay [3] is “no binding (tested: 1000 nM Fab)”. Further, in assay [6], the “Fold improvement in KD” value amounted to 134 fold, binding was put at a Kd of 0.438 nM, the koff is 0.00331 s⁻¹ and the on-rate constant (kon) came out at 7.57e+06 M⁻¹ s⁻¹. In addition, in assay [7], the dissociation constant Kd was 0.508 nM, the dissociation rate constant (koff) worked out at 0.00454 s⁻¹ and the kon was 8.94e+06 M⁻¹ s⁻¹. For the same molecule, in assay [8], the dissociation constant (Kd) was determined as 0.438 nM, the koff is 0.00331 s⁻¹ and the on-rate (kon) was 7.57e+06 M⁻¹ s⁻¹.

B3: 54BLH (Fab, V domains shown)
VH: B1 VH with K59R, Y104Q
VL: B1 VL with V53I
notes: also called 06BLM Fab
As to B3, the “Fold change in KD from pH 7.4 to pH 6” value in assay [1] stood at 1.5 fold. The binding result in assay [2] and in assay [3] was “no binding (tested: 1000 nM Fab)” each time. For the same molecule, the dissociation constant (Kd) in assay [4] stood at 0.00477 nM; in assay [5], 0.0217 nM; in assay [6], 0.004 nM; in assay [7] it was 0.006 nM; in assay [8], 0.004 nM. In addition, the dissociation rate constant (koff) stood at 3.34e-05 s⁻¹ in assay [4]; 0.000101 s⁻¹ in assay [5]; 2.07e-05 s⁻¹ in assay [6]; 4.73e-05 s⁻¹ in assay [7]; 2.07e-05 s⁻¹ in assay [8]. Also, the association rate constant (kon) in assay [4] came out at 7.03e+06 M⁻¹ s⁻¹; in assay [5] it was 4.65e+06 M⁻¹ s⁻¹; in assay [6], 4.96e+06 M⁻¹ s⁻¹; in assay [7], 7.56e+06 M⁻¹ s⁻¹; in assay [8], 4.96e+06 M⁻¹ s⁻¹. In addition, the “Fold improvement in KD” value in assay [6] worked out at 14600 fold.

B4: 56BLH (Fab, V domains shown)
VH: B1 VH with I58T, Y104Q
VL: B1 VL with V53G
notes: also called 08BLM Fab
Take B4: the “Fold change in KD from pH 7.4 to pH 6” value in assay [1] was 1.7 fold. In addition, the binding result in assay [2] is “no binding (tested: 1000 nM Fab)”. Moreover, the binding result in assay [3] is “no binding (tested: 1000 nM Fab)”. For the same molecule, in assay [6], the “Fold improvement in KD” value was determined as 9760 fold, the Kd turned out to be 0.006 nM, the dissociation rate constant (koff) was found to be 2.57e-05 s⁻¹ and the kon is 4.53e+06 M⁻¹ s⁻¹. Further, in assay [7], the dissociation constant (Kd) is 0.01 nM, the off-rate constant (koff) came to 5.56e-05 s⁻¹ and the kon worked out at 5.55e+06 M⁻¹ s⁻¹. In assay [8], this molecule yielded a Kd of 0.006 nM, an off-rate (koff) of 2.57e-05 s⁻¹ and a kon of 4.53e+06 M⁻¹ s⁻¹.

B5: 57BLH (Fab, V domains shown)
VH: B1 VH with Q54I
VL: B1 VL with Y30F, V53H
notes: also called 09BLM Fab
B5: in assay [1], the “Fold change in KD from pH 7.4 to pH 6” value came to 1.3 fold. The binding result in assay [2] is on record as “no binding (tested: 1000 nM Fab)”. Moreover, the binding result in assay [3] is “no binding (tested: 1000 nM Fab)”. Also, in assay [6], the “Fold improvement in KD” value was determined as 723 fold, binding was characterised by a dissociation constant (Kd) of 0.081 nM, the off-rate (koff) was 0.00049 s⁻¹ and the on-rate constant (kon) was 6.06e+06 M⁻¹ s⁻¹. In addition, in assay [7], the Kd amounted to 0.106 nM, the off-rate (koff) worked out at 0.00159 s⁻¹ and the association rate constant (kon) worked out at 1.54e+07 M⁻¹ s⁻¹. Moreover, in assay [8], binding was put at a Kd of 0.081 nM, the off-rate constant (koff) was 0.00049 s⁻¹ and the association rate constant (kon) was found to be 6.06e+06 M⁻¹ s⁻¹.

B6: 62BLH (Fab, V domains shown)
VH: B1 VH with M34T
VL: B1 VL with V53Y
notes: also called 14BLM Fab
For the molecule B6, in assay [1], the “Fold change in KD from pH 7.4 to pH 6” value was 1.2 fold. Also, the binding result in assay [2] is recorded as “no binding (tested: 1000 nM Fab)”. Moreover, the binding result in assay [3] is given as “no binding (tested: 1000 nM Fab)”. Besides, in assay [6], the “Fold improvement in KD” value was found to be 222 fold, the Kd worked out at 0.246 nM, the koff is 0.00124 s⁻¹ and the on-rate constant (kon) turned out to be 4.69e+06 M⁻¹ s⁻¹. In assay [7], the dissociation constant (Kd) worked out at 0.29 nM, the koff turned out to be 0.00168 s⁻¹ and the association rate constant (kon) turned out to be 5.8e+06 M⁻¹ s⁻¹. In assay [8], this molecule displayed a Kd of 0.246 nM, an off-rate (koff) of 0.00124 s⁻¹ and an on-rate constant (kon) of 4.69e+06 M⁻¹ s⁻¹.

B7: 61BLH (Fab, V domains shown)
VH: B1 VH with S55T, G57D, Y104Q
VL: B1 VL with V53G
notes: also called 13BLM Fab
For the molecule B7, the “Fold change in KD from pH 7.4 to pH 6” value in assay [1] was 2.4 fold. The binding result in assay [2] was “no binding (tested: 1000 nM Fab)”. Also, the binding result in assay [3] is “no binding (tested: 1000 nM Fab)”. In assay [6], the “Fold improvement in KD” value worked out at 4500 fold, binding was characterised by a dissociation constant (Kd) of 0.013 nM, the koff came out at 4.52e-05 s⁻¹ and the kon was determined as 3.57e+06 M⁻¹ s⁻¹. In assay [7], the Kd amounted to 0.031 nM, the dissociation rate constant (koff) turned out to be 0.000121 s⁻¹ and the kon was determined as 3.91e+06 M⁻¹ s⁻¹. In addition, in assay [8], the Kd was found to be 0.013 nM, the koff is 4.52e-05 s⁻¹ and the kon was 3.57e+06 M⁻¹ s⁻¹.

B8: 58BLH (Fab, V domains shown)
VH: B1 VH with I58T
VL: B1 VL
notes: also called 10BLM Fab
Take B8: in assay [1], the “Fold change in KD from pH 7.4 to pH 6” value was determined as 1.6 fold. The binding result in assay [2] was “no binding (tested: 1000 nM Fab)”. Moreover, in assay [3], the binding result was “no binding (tested: 1000 nM Fab)”. Besides, in assay [6], the “Fold improvement in KD” value was 1100 fold; the affinity, expressed as Kd, was 0.053 nM; the koff amounted to 0.000313 s⁻¹; the kon stood at 5.93e+06 M⁻¹ s⁻¹. In assay [7], the dissociation constant (Kd) was 0.086 nM, the koff is 0.000591 s⁻¹ and the on-rate (kon) was 6.88e+06 M⁻¹ s⁻¹. For the same molecule, in assay [8], binding was put at a Kd of 0.053 nM, the koff came out at 0.000313 s⁻¹ and the on-rate constant (kon) came to 5.93e+06 M⁻¹ s⁻¹.
